Reference: PMC7772773, “HTR6 and SSTR3 ciliary targeting relies on both IC3 loops and C-terminal tails” (Life Science Alliance, 2020)

Experiments:
[1] = target: T1, CD8α (aa 1–206)-(HTR6-CT)-BioID2-HA ( | mouse, UniProt P01732 22-206; Q9R1C8 326-440); test: proximity labelling; BioID2 proximity biotinylation in HEK293T cells cotransfected with EGFP-TEV-Stag-TULP3 (or S-tagged TULP3-NTD or -CTD) and CD8α(1–206)-(IC3 or CT of a GPCR)-BioID2-HA; 50 μM biotin for the last 16 h; TULP3 purified from lysate by tandem purification (GFP-Trap, TEV digestion, S-protein agarose); its biotinylation detected with NeutrAvidin-HRP, relative to total TULP3 and normalised to the β2AR …; conditions: partners not purified
T1 construct: signal peptide in the construct; CD8α, extracellular and transmembrane regions, aa 1–206; serotonin receptor 6 (HTR6), mouse, C-terminal tail (HTR6-CT, aa 326–440); also called HTR6-CT(WT); wild-type HTR6-CT; source: HEK293T, cotransfected, in cells; not shown: BioID2, C-terminal, kept; HA, C-terminal, kept
T1 sequence (P01732 22-206, tags or fused parts left off): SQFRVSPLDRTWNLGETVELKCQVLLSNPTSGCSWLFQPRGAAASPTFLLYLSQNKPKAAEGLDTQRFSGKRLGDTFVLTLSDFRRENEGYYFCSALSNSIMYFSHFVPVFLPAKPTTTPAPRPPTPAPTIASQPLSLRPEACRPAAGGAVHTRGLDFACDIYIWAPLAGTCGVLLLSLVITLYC

[2] = target: T2, CD8α (aa 1–206)-(SSTR3-CT)-BioID2-HA ( | mouse, UniProt P01732 22-206; P30935 326-428); test: as above; conditions: partners not purified
T2 construct: signal peptide in the construct; CD8α, extracellular and transmembrane regions, aa 1–206; somatostatin receptor 3 (SSTR3), mouse, C-terminal tail (SSTR3-CT, aa 326–428); source: HEK293T, cotransfected, in cells; not shown: BioID2, C-terminal, kept; HA, C-terminal, kept
T2 sequence (P01732 22-206, tags or fused parts left off): as above

B1: EGFP-TEV-Stag-TULP3 (natural protein, UniProt O75386 1-442, looked up)
chain: MEASRCRLSPSGDSVFHEEMMKMRQAKLDYQRLLLEKRQRKKRLEPFMVQPNPEARLRRAKPRASDEQTPLVNCHTPHSNVILHGIDGPAAVLKPDEVHAPSVSSSVVEEDAENTVDTASKPGLQERLQKHDISESVNFDEETDGISQSACLERPNSASSQNSTDTGTSGSATAAQPADNLLGDIDDLEDFVYSPAPQGVTVRCRIIRDKRGMDRGLFPTYYMYLEKEENQKIFLLAARKRKKSKTANYLISIDPVDLSREGESYVGKLRSNLMGTKFTVYDRGICPMKGRGLVGAAHTRQELAAISYETNVLGFKGPRKMSVIIPGMTLNHKQIPYQPQNNHDSLLSRWQNRTMENLVELHNKAPVWNSDTQSYVLNFRGRVTQASVKNFQIVHKNDPDYIVMQFGRVADDVFTLDYNYPLCAVQAFGIGLSSFDSKLACE
notes: TULP3, ciliary trafficking adapter; the printed limit of its C-terminal domain (aa 184–442) points to a protein of 442 aa; A TEV site lies between EGFP and the S-tag; EGFP is cut off only after the first immunoprecipitation, that is after the labelling in cells; also called S-tagged TULP3; not shown: EGFP, N-terminal, kept; S-tag, N-terminal, kept
- fold biotinylated TULP3 over β2AR-CT control [1]: 4 fold
- fold biotinylated TULP3 over β2AR-CT control [2]: 20 fold
